Experiments:
[1] = biological target: T1, human PCSK9 (proprotein convertase subtilisin kexin type 9) (human, UniProt Q8NBP7 31-692); test: BIAcore solution equilibrium, pH 7.4; pH 7.4
T1 construct: Used untagged, biotinylated, V5/His- or His-tagged depending on the assay; also called hPCSK9; huPCSK9

[2] = biological target: T1, human PCSK9 (proprotein convertase …); test: BIAcore kinetic assay 1, His-tagged huPCSK9 captured, pH 6.0
[3] = biological target: T1, human PCSK9 (proprotein convertase …); test: BIAcore solution equilibrium, pH 5.5
[4] = biological target: T1, human PCSK9 (proprotein convertase …); test: BIAcore solution equilibrium, pH 6.0
[5] = biological target: T1, human PCSK9 (proprotein convertase …); test: BIAcore kinetic assay 1, His-tagged huPCSK9 captured, pH 7.4
[6] = biological target: T1, human PCSK9 (proprotein convertase …); test: BIAcore kinetic assay 1, His-tagged huPCSK9 captured, pH 5.5
mouse PCSK9 [7] = biological target: T2, mouse PCSK9 (mouse, UniProt Q80W65 35-694, limits assumed); test: BIAcore, antibody immobilised, pH 7.4
T2 construct: biotinylated, tag not mentioned, in the hybridoma screen; also called mPCSK9-8xHIS; mPCSK9

mouse PCSK9 [8] = biological target: T2, mouse PCSK9; test: BIAcore solution equilibrium
mouse PCSK9 [9] = biological target: T2, mouse PCSK9; test: KinExA solution equilibrium
[10] = biological target: T3, PCSK9 V domain (450-692 of SEQ ID NO: 3) (human, UniProt Q8NBP7 450-692); test: domain binding ELISA
T3 construct: also called v-domain PCSK9
T3 chain: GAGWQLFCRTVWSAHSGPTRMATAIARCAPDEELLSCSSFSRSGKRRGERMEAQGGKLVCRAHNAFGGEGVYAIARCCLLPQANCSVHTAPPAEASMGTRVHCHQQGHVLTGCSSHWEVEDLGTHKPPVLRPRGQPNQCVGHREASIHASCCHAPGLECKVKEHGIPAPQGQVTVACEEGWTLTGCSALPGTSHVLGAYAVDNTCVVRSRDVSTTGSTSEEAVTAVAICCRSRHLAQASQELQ

B1: 9C9 (antibody, V domains shown)
VH: EVQLVESGGGLVQPGGSLRLSCVVSGFTFSSYWMSWVRQAPGKGLEWVANIKQDGSEKYYVDSVKGRFTISRDNAKNSLYLQMNSLRAEDTAVYYCARESNWGFAFDIWGQGTMVTVSS
VL: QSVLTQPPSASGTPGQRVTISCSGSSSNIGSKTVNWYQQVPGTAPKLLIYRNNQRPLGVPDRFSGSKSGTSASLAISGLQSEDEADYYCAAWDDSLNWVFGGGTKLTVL
With B1 the Kd [1] was 0.56 nM, the Kd [2] was 2.3 nM and the Kd [3] was 3.2 nM. It also gave a Kd [4] of 2.3 nM, a Kd [5] of 0.56 nM and a Kd [6] of 3.2 nM.

B2: 21B12, anti-PCSK9 huIgG4 (antibody, V domains shown)
VH: QVQLVQSGAEVKKPGASVKVSCKASGYTLTSYGISWVRQAPGQGLEWMGWVSFYNGNTNYAQKLQGRGTMTTDPSTSTAYMELRSLRSDDTAVYYCARGYGMDVWGQGTTVTVSS
VL: QSALTQPASVSGSPGQSITISCTGTSSDVGGYNSVSWYQQHPGKAPKLMIYEVSNRPSGVSNRFSGSKSGNTASLTISGLQAEDEADYYCNSYTSTSMVFGGGTKLTVLQ
notes: from hybridoma; also called 21B12 IgG4; 21B12.1
B2 was tested, and the Kd (mouse PCSK9 [7]) was 460 nM and the Kd (mouse PCSK9 [8]) was 17 nM.

B3: 16F12, anti-PCSK9 huIgG4 (antibody, V domains shown)
VH: QVHLVESGGGVVQPGRSLRLSCAASGFTFNSFGMHWVRQAPGKGLEWVALIWSDGSDEYYADSVKGRFTISRDNSKNTLYLQMNSLRAEDTAVYYCARAIAALYYYYGMDVWGQGTTVTVSS
VL: QSVLTQPPSVSAAPGQKVTISCSGSSSNIGNNFVSWYQQLPGTAPKLLIYDYNKRPSGIPDRFSGSKSGTSATLGITGLQTGDEADYYCGTWDSSLSAYVFGTGTRVTVLQ
notes: from hybridoma; also called 16F12 IgG4; 16F12.1
B3 showed a Kd (mouse PCSK9 [9]) of 0.223 nM and a Kd (mouse PCSK9 [7]) of 6.4 nM.

B4: 3C4 (antibody, V domains shown)
VH: QVQLQESGPGLVKPSQTLSLTCTVSGGSISSSDYYWSWIRQHPGKGLEWIGYIYYSGSTYYNPSLKSRITISVDTSKNLFSLKLSSVTAADTAVYYCARGGVTTYYYAMDVWGQGTTVTVSS
VL: DIQMTQSPSSLSASVGDRVTITCRASQRISNYLSWYLQKPGIAPKLLIYAASSLQSGVPSRFSGSGSGTDFTLTISSLQSEDFATYYCQQSYSTPLIFGGGTKVEIK
B4: binds [10].

Reference: patent US20130072665A1 (Amgen, published 2013)
